Source: patent US20130217685, “COMPOUNDS FOR MODULATING RNA BINDING PROTEINS AND USES THEREFOR” (UNIVERSITY OF MASSACHUSETTS, published 2013)

Target: T1, MEX-5 TZF domain (236-350) (Caenorhabditis elegans, UniProt Q9XUB2 Q9XUB2:236-350)
T1 sequence: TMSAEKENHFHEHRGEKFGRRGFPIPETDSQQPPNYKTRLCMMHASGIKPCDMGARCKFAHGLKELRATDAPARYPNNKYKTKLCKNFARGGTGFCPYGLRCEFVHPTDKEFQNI
Assay: EMSA; 120 nM protein, 2-3 nM RNA; compound dose response (compound E IC50 2.0 uM)
Conditions: tags: N-terminal MBP (pMal-c, NEB); ORFeome clone, Open Biosystems; label: 3'-fluorescein
Experimental: A further dose response assay was performed on select compounds of the invention as described below. A sub-saturating concentration of MEX-5 or POS-1 (120 nM) was equilibrated with limiting fluorescein labeled RNA (2-3 nM, TCR2 RNA or MEX-3 UTR fragment RNA respectively) in the presence of varying concentrations of compound. Following equilibration, the reactions were loaded onto a 5% slab polyacrylamide gel and subjected to electrophoresis for about 1 hour to separate protein-RNA complex from free RNA. The gel was scanned on a FUJI FLA-5000 imager, and the fraction of bound RNA determined by dividing the intensity of the bound RNA by the intensity of the bound RNA plus the free RNA. The fraction of […] was plotted as a function of compound concentration and fit to a sigmoidal dose response function in order to determine the IC₅₀, the concentration that gives half maximal inhibition.

B1: TCR2 (ssRNA)
RNA: UUUCUUUAUAACUUGUUACAAUUUUUGAAA
Question: Does B1 bind?
Answer: Result: binds
